Assay results from patent US20260152546A1.
Positions count from the first letter of the chain named. Where two headings read alike, the source gives them in different places.

B1: PG9RSH N(100f)Y (antibody, V domains shown)
VH: ERLVESGGGVVQPGSSLRLSCAASGFDFSRQGMHWVRQAPGQGLEWVAFIKYDGSEKYHADSVWGRLSISRDNSKDTLYLQMNSLRVEDTATYFCVREAGGPDYRNGYYYYDFYDGYYNYHYMDVWGKGTTVTVSS
VL: QSALTQPASVSGSPGQSITISCQGTSNDVGGYESVSWYQQHPGKAPKVVIYDVSKRPSGVSNRFSGSKSGNTASLTISGLQAEDEGDYYCKSLTSRSHRVFGTGTKLTVLG
B2: PG9RSH Y(100k)D (antibody, V domains shown)
VH: B1 VH with Y109N, Y114D
VL: B1 VL
B3: PGT145 (antibody, V domains shown)
VH: QVQLVQSGAEVKKPGSSVKVSCKASGNSFSNHDVHWVRQATGQGLEWMGWMSHEGDKTGLAQKFQGRVTITRDSGASTVYMELRGLTADDTAIYYCLTGSKHRLRDYFLYNEYGPNYEEWGDYLATLDVWGHGTAVTVSS
VL: EVVITQSPLFLPVTPGEAASLSCKCSHSLQHSTGANYLAWYLQRPGQTPRLLIHLATHRASGVPDRFSGSGSGTDFTLKISRVESDDVGTYYCMQGLHSPWTFGQGTKVEIKR

How the values were obtained:
[1] = target: HIV-1 Env of the BG505 strain (on pseudovirus) (HIV-1)
[2] = target: panel of 208 geographically and genetically diverse HIV-1 Env pseudoviruses
[3] = target: panel of 208 geographically and genetically diverse HIV-1 Env pseudoviruses; remark: listed apart in the source
[4] = target: HIV-1 Env of pseudovirus ZM233.6 (clade C) (HIV-1)
[5] = target: HIV-1 Env of the BG505 strain (on pseudovirus) (HIV-1); remark: listed apart in the source
[6] = target: HIV-1 Env of pseudovirus ZM233.6 (clade C) (HIV-1); remark: listed apart in the source
[7] = target: HIV-1 Env of the BG505 strain (on pseudovirus) (HIV-1); remark: listed apart in the source
[8] = target: HIV-1 Env of pseudovirus Q259.17 (clade A) (HIV-1)
[9] = target: HIV-1 Env of pseudovirus 16936-2.21 (clade C) (HIV-1)
[10] = target: HIV-1 Env of pseudovirus CH038.12 (clade BC) (HIV-1)
[11] = target: HIV-1 Env of pseudovirus 191821.E6.1 (clade D) (HIV-1)
[12] = target: HIV-1 Env of pseudovirus CAP256.206.C9 (clade C) (HIV-1)
[13] = target: HIV-1 Env of pseudovirus 246-F3.C10.2 (clade AC) (HIV-1)

Molecule | IC50 [1] | IC80 [1] | % of viruses neutralized, IC50 50 µg/mL [2] | Mean IC50 (geometric mean, samples with IC50 < 50 µg/mL) [2] | Median IC50 (samples with IC50 < 50 µg/mL) [2] | % of viruses neutralized, IC80 < 1.0 µg/mL [3] | Mean IC80 (geometric mean, samples with IC80 < 50 µg/mL) [3] | Median IC80 (samples with IC80 < 50 µg/mL) [3] | other results
PGT145 N(100l)D (antibody) | 0.003 µg/mL | 0.01 µg/mL | – | – | – | – | – | – | –
B1 | – | – | 83% | 0.04 µg/mL | 0.025 µg/mL | 62% | 0.106 µg/mL | 0.086 µg/mL | fold decrease in IC50 relative to wild type [4]: 63 fold; IC50 [5]: 0.009 µg/mL; IC80 [5]: 0.023 µg/mL
B2 | – | – | 87% | 0.035 µg/mL | 0.017 µg/mL | 63% | 0.078 µg/mL | 0.058 µg/mL | IC50 (variant) [6]: 0.001 µg/mL; fold-change in IC50 between wild type and variant [6]: 110 fold; IC50 [7]: 0.004 µg/mL; IC80 [7]: 0.01 µg/mL
B3 | 0.01 µg/mL | 0.253 µg/mL | 75% | 0.086 µg/mL | 0.053 µg/mL | 39% | 0.343 µg/mL | 0.276 µg/mL | IC50 (WT) [8]: 45 µg/mL; IC50 (WT) [9]: 5.14 µg/mL; IC50 (WT) [10]: 46.5 µg/mL; IC50 (WT) [11]: 3.35 µg/mL; IC50 (WT) [12]: 3.95 µg/mL; IC50 (WT) [13]: 17.4 µg/mL
